Assay results as given in patent US6759384.
Non-standard residues stand in square brackets, D forms with d. *: point of attachment. Phe(4-NH2) = Nc1ccc(C[C@H](N)C(=O)O)cc1; 2Nal = N[C@@H](Cc1ccc2ccccc2c1)C(=O)O; Hyp = O=C(O)[C@@H]1C[C@@H](O)CN1; Cha = N[C@@H](CC1CCCCC1)C(=O)O; Chg = N[C@H](C(=O)O)C1CCCCC1; Cbz = O=C(OCc1ccccc1)*

Target: human factor Xa (Enzyme Research Laboratories, Inc.) (human) (UniProt P00742)
Assay: chromogenic FXa inhibition

Chain of human factor Xa (Enzyme Research Laboratories, Inc.) (human) (P00742 41-179 limits assumed, chain 1 of 2): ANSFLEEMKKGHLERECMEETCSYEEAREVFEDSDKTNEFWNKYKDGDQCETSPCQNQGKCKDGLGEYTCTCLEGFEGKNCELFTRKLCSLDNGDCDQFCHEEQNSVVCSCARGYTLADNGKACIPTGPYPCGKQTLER
Chain of human factor Xa (Enzyme Research Laboratories, Inc.) (human) (P00742 235-488 limits assumed, chain 2 of 2): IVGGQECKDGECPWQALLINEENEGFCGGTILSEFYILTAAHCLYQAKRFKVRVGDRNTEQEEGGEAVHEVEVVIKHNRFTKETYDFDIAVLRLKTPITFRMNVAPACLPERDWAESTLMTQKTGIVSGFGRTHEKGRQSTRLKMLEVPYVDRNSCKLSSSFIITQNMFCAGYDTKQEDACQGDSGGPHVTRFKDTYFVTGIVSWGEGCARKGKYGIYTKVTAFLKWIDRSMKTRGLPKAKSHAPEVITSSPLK

## 3-phenoxyproprionic-Y-Chg-R-NH2 (peptide)
  Ki: < 100 µM

## 5-Bzim-CO-Chg-R-L-P-NH2 (peptide)
  Ki: < 100 µM

## 5-Hic-Chg-R-NH2 (peptide)
  Ki: < 100 µM

## (2-benzofuroyl)-Phe(pNH2)-Chg-Dab(CH═N(CH3)2)-Leu-Pro-NH2 (peptide)
  Ki: < 100 µM

## (2-benzofuroyl)-Tyr-Chg-Arg-Pen-Pro-NH2 (peptide)
  Ki: < 100 µM

## (2-benzofuroyl)-pAph-Chg-Arg-Pen(CH2COOH)-Pro-NH2 (peptide)
  Ki: < 100 µM

## (2-benzofuroyl)-pAph-Chg-PalMe(3)-NH2 (peptide)
  Ki: < 100 µM

## (2-benzofuroyl)-pAph-Chg-PalMe(3)-Pen(CH2COOH)-Pro-NH2 (peptide)
  Ki: < 100 µM

## (2-fluorobenzoyl)-pAph-Chg-NH-(4-trimethyl-ammonium benzyl) (peptide)
  Ki: < 100 µM

## (2-furoyl)-pAph-Chg-NH-1-[3(N-methylpyridyl)]-1-(methylacetate)ethyl (peptide)
  Ki: < 100 µM

## (2-furoyl)-pAph-Chg-NH-(4-trimethyl-ammonium benzyl) (peptide)
  Ki: < 100 µM

## (2-pyridoyl)-pAph-Chg-PalMe(3)-NH2 (peptide)
  Ki: < 100 µM

## (2-quinolinoyl)-pAph-Chg-PalMe(3)-NH2 (peptide)
  Ki: < 100 µM

## (2-thienylacetyl)-pAph-Chg-NH-(4-trimethyl-ammonium benzyl) (peptide)
  Ki: < 100 µM

## (3,4-dichlorobenzoyl)-pAph-Chg-NH-(4-trimethyl-ammonium benzyl) (peptide)
  Ki: < 100 µM

## (3-pyridoyl)-Nal(2)-Chg-Arg-Leu-Pro-NH2 (peptide)
  Ki: < 100 µM

## (5-pyrazinoyl)Nal(2)-Chg-Arg-Leu-Pro-NH2 (peptide)
  Ki: < 100 µM

## (Alloc)-pAph-Chg-Arg-Leu-Pro-NH2 (peptide)
  Ki: < 100 µM

## (Ethoxycarbonyl)-pAph-Chg-NH-(4-trimethyl-ammonium benzyl) (peptide)
  Ki: < 100 µM

## (N-(5-methyl-2-thienoyl)-pAph-Chg-NH-(4-trimethyl-ammonium benzyl) (peptide)
  Ki: < 100 µM

## (iBu)Y-I-R-OH (peptide)
  Ki: < 100 µM

## (pOH)C6H4-CH2CH2(OH)-CO-I-R-L-Sar-NH2 (peptide)
  Ki: < 100 µM

## (t-Butoxycarbonyl)-pAph-Chg-NH-(4-trimethyl-ammonium benzyl) (peptide)
  Ki: < 100 µM

## Ac-(3,5,5-Me-3-nHexyl)Y-I-R-NH2 (peptide)
  Ki: < 100 µM

## Ac-(4-MeO-Bzl)Y-I-R-NH2 (peptide)
  Ki: < 100 µM

## Ac-(4-pyridil-CH2-)Y-I-R-NH2 (peptide)
  Ki: < 100 µM

## Ac-(Bzl)G-(Chx)Gly-(3-GuanidoPropyl)G-NH2 (peptide)
  Ki: < 100 µM

## Ac-(Bzl)Y-I-R-NH2 (peptide)
  Ki: < 100 µM

## Ac-(iBu)F(pNH2)-Chg-R-NH2 (peptide)
  Ki: < 100 µM

## Ac-(iBu)Y-Chg-R-NH2 (peptide)
  Ki: < 100 µM

## Ac-(iBu)Y-I-R-NH2 (peptide)
  Ki: < 100 µM

## Ac-(iBu-Nal(2)-Chg-R-L-P-NH2 (peptide)
  Ki: < 100 µM

## Ac-(nBu)Y-I-R-NH2 (peptide)
  Ki: < 100 µM

## Ac-D-pAph-Chg-Arg-(carboxyethyl)Gly-Pro-NH2 (peptide)
  Ki: < 100 µM

## Ac-D-pAph-Chg-Arg-Cys-(CH2-COOH)-Pro-NH2 (peptide)
  Ki: < 100 µM

## Ac-D-pAph-Chg-Arg-Gla-Pro-NH2 (peptide)
  Ki: < 100 µM

## Ac-D-pAph-Chg-Arg-Leu-Pro-NH2 (peptide)
  Ki: < 100 µM

## Ac-D-pAph-Chg-Arg-N(carboxymethyl)Gly-Pro-NH2 (peptide)
  Ki: < 100 µM

## Ac-D-pAph-Chg-Arg-NH2 (peptide)
  Ki: < 100 µM

## Ac-D-pAph-Chg-Arg-N[1(1,3-dicarboxy)propyl)]Gly-Pro-NH2 (peptide)
  Ki: < 100 µM

## Ac-D-pAph-Chg-PalMe(3)-Leu-Pro-NH2 (peptide)
  Ki: < 100 µM

## Ac-F(pNH2)-Chg-R-NH2 (peptide)
  Ki: < 100 µM

## Ac-Nal(2)-Cha-R-D(O-Allyl)-NH2 (peptide)
  Ki: < 100 µM

## Ac-Nal(2)-Chg-R-NH2 (peptide)
  Ki: < 100 µM

## Ac-Pal(4)Me-Chg-Arg-Leu-Pro-NH2 (peptide)
  Ki: < 100 µM

## Ac-Pal(4)Me-Chg-Pal(4)Me-Leu-Pro-NH2 (peptide)
  Ki: < 100 µM

## Ac-Pal(4)Me-Chg-PalMe(3)-Leu-Pro-NH2 (peptide)
  Ki: < 100 µM

## Ac-Pgl(OH)-I-R-L-NH2 (peptide)
  Ki: < 100 µM

## Ac-Y-Chg-R(NO2)-{ψ(CH2NH)}-L-NH2 (peptide)
  Ki: < 100 µM

## Ac-Y-Chg-R-NH-Bzl-4-OMe (peptide)
  Ki: < 100 µM

## Ac-Y-Chg-R-NH-CH2(2-(1-Et)pyrrolidinyl) (peptide)
  Ki: < 100 µM

## Ac-Y-Chg-R-NH-CH2(2-(6-EtO)benzylthiazolyl) (peptide)
  Ki: < 100 µM

## Ac-Y-Chg-R-NH-CH2-Chx (peptide)
  Ki: < 100 µM

## Ac-Y-Chg-R-NH-CH2CH2-COOH (peptide)
  Ki: < 100 µM

## Ac-Y-Chg-R-NH-CH2CH2-N(CH3)4 (peptide)
  Ki: < 100 µM

## Ac-Y-Chg-R-NH-CH2CH2-N-(CH3)2 (peptide)
  Ki: < 100 µM

## Ac-Y-Chg-R-NH-CH2CH2-O-CH3 (peptide)
  Ki: < 100 µM

## Ac-Y-Chg-R-NH-Chx (peptide)
  Ki: < 100 µM

## Ac-Y-I-PalMe(3)-NH2 (peptide)
  Ki: < 100 µM

## Ac-Y-I-R-L-P-Dab(Ac-Y-I-R-L-P(G-A)3)-OH (peptide)
  Ki: < 100 µM

## Ac-Y-I-R-L-P-Dab(Ac-Y-I-R-L-P(G-A)6)-OH (peptide)
  Ki: < 100 µM

## Ac-Y-I-R-N(Me)O-CH3 (peptide)
  Ki: < 100 µM

## Ac-Y-I-R-NH2 (peptide)
  Ki: < 100 µM

## Ac-Y-I-R-NH-4-morpholinyl (peptide)
  Ki: < 100 µM

## Ac-Y-I-R-NH-CH2-4-Pyridyl (peptide)
  Ki: < 100 µM

## Ac-Y-I-R-NH-CH2CH2-N(CH3)2 (peptide)
  Ki: < 100 µM

## Ac-Y-I-R-NH-OCH3 (peptide)
  Ki: < 100 µM

## Ac-Y-I-R-Nle-Hyp (peptide)
  Ki: < 100 µM

## Ac-Y-I-R-Piperidyl (peptide)
  Ki: < 100 µM

## Ac-Y-Nva-R-NH2 (peptide)
  Ki: < 100 µM

## Ac-[2Nal][Cha]RLP-NH2
  Ki: < 100 µM

## Ac-[Phe(4-NH2)][Chg]RL[Hyp]-NH2
  Ki: < 100 µM

## Ac-mAph-Chg-Arg-Leu-Pro-NH2 (peptide)
  Ki: < 100 µM

## Ac-pAph-Cha-PalMe(3)-(Me)Leu-Pro-NH2 (peptide)
  Ki: < 100 µM

## Ac-pAph-Chg-Arg (peptide)
  Ki: < 100 µM

## Ac-pAph-Chg-Arg(HOOC-CH2-CH2)Gly-Pro-NH2 (peptide)
  Ki: < 100 µM

## Ac-pAph-Chg-Arg-(HOOC-CH2)Gly-Pro-NH2 (peptide)
  Ki: < 100 µM

## Ac-pAph-Chg-Arg-Cys(CH2COOH)-Pro-NH2 (peptide)
  Ki: < 100 µM

## Ac-pAph-Chg-Arg-Gla-Pro-NH2 (peptide)
  Ki: < 100 µM

## Ac-pAph-Chg-Arg-Leu-NH2 (peptide)
  Ki: < 100 µM

## Ac-pAph-Chg-Arg-Leu-OH (peptide)
  Ki: < 100 µM

## Ac-pAph-Chg-Arg-NH2 (peptide)
  Ki: < 100 µM

## Ac-pAph-Chg-Arg-N[1(1,3-dicarboxy)propyl)]Gly-Pro-NH2 (peptide)
  Ki: < 100 µM

## Ac-pAph-Chg-Arg-Pen(CH2COOH)-Pro-NH2 (peptide)
  Ki: < 100 µM

## Ac-pAph-Chg-Dab(CH ═N(CH3)2)-Leu-Pro-NH2 (peptide)
  Ki: < 100 µM

## Ac-pAph-Chg-Dap(CH═N(CH3)2)-Leu-Pro-NH2 (peptide)
  Ki: < 100 µM

## Ac-pAph-Chg-NH-1-[3(N-methylpyridyl)]-1-(methylacetate)ethyl (peptide)
  Ki: < 100 µM

## Ac-pAph-Chg-NH-(4-amidinobenzyl) (peptide)
  Ki: < 100 µM

## Ac-pAph-Chg-NH-(4-trimethyl-ammonium benzyl) (peptide)
  Ki: < 100 µM

## Ac-pAph-Chg-NH-[1-(1-methyl-4-pyridinium)-2-hydroxy]ethyl (peptide)
  Ki: < 100 µM

## Ac-pAph-Chg-NH-[1-(1-methyl-4-pyridinium)ethyl (peptide)
  Ki: < 100 µM

## Ac-pAph-Chg-NH[4-(1-methyl-pyridinium)methyl] (peptide)
  Ki: < 100 µM

## Ac-pAph-Chg-Pal(3)(CH2COOH)-NH2 (peptide)
  Ki: < 100 µM

## Ac-pAph-Chg-PalMe(3)-Leu-Pro-NH2 (peptide)
  Ki: < 100 µM

## Ac-pAph-Chg-PalMe(3)-NH2 (peptide)
  Ki: < 100 µM

## Ac-pAph-Chg-PalMe(3)-NH(1-methoxycarbonyl)-1-cyclohexyl (peptide)
  Ki: < 100 µM

## Ac-pAph-Chg-PalMe(3)-NH-(1-methoxycarbonyl)-1-cyclopentyl (peptide)
  Ki: < 100 µM

## Ac-pAph-Chg-PalMe(3)-NH-(3-thienyl-2-carboxylic acid methyl ester) (peptide)
  Ki: < 100 µM

## Ac-pAph-Chg-PalMe(3)-NH-(4-carboxycyclohexyl) methyl (peptide)
  Ki: < 100 µM

## Ac-pAph-Chg-PalMe(3)-NH-(4-methoxycarbonyl-cyclohexyl)methyl (peptide)
  Ki: < 100 µM

## Ac-pAph-Chg-PalMe(3)-Pen(CH2COOH)-Pro-NH2 (peptide)
  Ki: < 100 µM

## Ac-pAph-Chg-R-L-P-NH2 (peptide)
  Ki: < 100 µM

## Ac-pAph-Pgl-PalMe(3)-NH2 (peptide)
  Ki: < 100 µM

## Ac-y-I-R-NH2 (peptide)
  Ki: < 100 µM

## Alloc-D-pAph-Chg-Arg-Leu-Pro-NH2 (peptide)
  Ki: < 100 µM

## Alloc-pAph-Chg-NH-[4-(-methylpyridinium)-methyl] (peptide)
  Ki: < 100 µM

## Alloc-pAph-Chg-PalMe(3)-NH2 (peptide)
  Ki: < 100 µM

## Alloc-pAph-Chg-PalMe(3)-Pen(CH2COOH)-Pro-NH2 (peptide)
  Ki: < 100 µM

## CF3C(O)-(iBu)Tyr-Chg-Arg-OH (peptide)
  Ki: < 100 µM

## Caff-I-R-NH2 (peptide)
  Ki: < 100 µM

## Cbz-I-R-NH2 (peptide)
  Ki: < 100 µM

## Cbz-Ile-Arg-Leu-NH2
  Ki: < 100 µM

## ClCH2CO-Y-I-R-NH2 (peptide)
  Ki: < 100 µM

## Nal(2)-Cha-R-D(O-Allyl)-NH2 (peptide)
  Ki: < 100 µM

## Nal(2)-Cha-R-D(O-Allyl)-Sar-NH2 (peptide)
  Ki: < 100 µM

## Nal(2)-Chg-R-L-P-NH2 (peptide)
  Ki: < 100 µM
